Patent US20090317825

Molecular target: human GST-E1 (Boston Biochem) (UniProt P22314)
Sequence (P22314 whole entry): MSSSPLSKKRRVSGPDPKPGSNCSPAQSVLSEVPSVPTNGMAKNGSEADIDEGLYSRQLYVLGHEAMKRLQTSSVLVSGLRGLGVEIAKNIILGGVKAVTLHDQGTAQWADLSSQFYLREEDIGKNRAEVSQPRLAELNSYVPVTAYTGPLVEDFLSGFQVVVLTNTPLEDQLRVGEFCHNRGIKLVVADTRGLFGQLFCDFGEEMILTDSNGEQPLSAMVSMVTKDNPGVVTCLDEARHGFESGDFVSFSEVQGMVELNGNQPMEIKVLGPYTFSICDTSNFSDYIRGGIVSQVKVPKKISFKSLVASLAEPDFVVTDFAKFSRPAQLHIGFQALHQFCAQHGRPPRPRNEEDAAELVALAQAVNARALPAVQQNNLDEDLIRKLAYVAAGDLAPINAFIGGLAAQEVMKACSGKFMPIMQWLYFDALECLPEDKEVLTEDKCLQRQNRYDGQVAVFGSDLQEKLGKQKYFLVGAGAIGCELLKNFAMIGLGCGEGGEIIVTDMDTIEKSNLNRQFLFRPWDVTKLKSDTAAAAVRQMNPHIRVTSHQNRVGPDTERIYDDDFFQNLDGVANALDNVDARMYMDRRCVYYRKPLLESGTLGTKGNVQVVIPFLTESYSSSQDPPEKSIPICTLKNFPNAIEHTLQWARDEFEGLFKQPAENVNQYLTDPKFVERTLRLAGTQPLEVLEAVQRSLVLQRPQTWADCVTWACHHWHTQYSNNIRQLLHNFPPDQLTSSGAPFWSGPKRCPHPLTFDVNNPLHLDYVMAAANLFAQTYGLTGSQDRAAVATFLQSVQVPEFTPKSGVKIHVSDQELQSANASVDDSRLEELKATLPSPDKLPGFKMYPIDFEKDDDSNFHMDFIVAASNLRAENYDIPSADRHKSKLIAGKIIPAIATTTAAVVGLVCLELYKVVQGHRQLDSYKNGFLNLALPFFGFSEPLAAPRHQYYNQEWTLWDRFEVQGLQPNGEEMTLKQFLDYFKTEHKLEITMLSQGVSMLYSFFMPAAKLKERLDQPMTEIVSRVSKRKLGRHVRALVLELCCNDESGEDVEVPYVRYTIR

His6-Parkin (full-length human Parkin fused to an N-terminal histidine tag, from E. coli, refolded)
ubiquitination of Parkin in the absence of UbCH7 (biotin-ubiquitin Western blot, NeutrAvidin-HRP): some reaction product was seen in the absence of UbCH7 when Parkin was incubated with E1 and ubiquitin for 90 minutes
